The values below come from paper PMC11969024, “Development of chemokine network inhibitors using combinatorial saturation mutagenesis” (Communications Biology, 2025).

The labels stand for the following.
B1: peptide HD2 (from tick evasin EVA4) / CCL22 (biotinylated, synthetic) (parent)
chain 1: EEDDYTAYAPLTCYFT
chain 2: GPYGANMEDSVCCRDYVRYRLPLRVVKHFYWTSDSCPRPGVVLLTFRDKEICADPRVPWVKMILNKLSQ
B2: peptide HD2 (from tick evasin EVA4) / CXCL13 (biotinylated, synthetic) (parent)
chain 1: EEDDYTAYAPLTCYFT
chain 2: VLEVYYTSLRCRCVQESSVFIPRRFIDRIQILPRGNGCPRKEIIVWKKNKSIVCVDPQAEWIQRMMEVLRKRSSSTLPVPVFKRKIP

The variants in one test derive from B1. Particulars: with CCL22 (biotinylated, synthetic); scale: log2.
With chain 1 E2C, the enrichment was -10.
On the same count and under the same terms, for chain 1 E2R the value was -7.13; for chain 1 A9D, -8.23; for chain 1 A9C, -10.1.
Same read-out and setting: for chain 1 A9P the value was -7.8; for chain 1 A9I, -9.99; for chain 1 Y5Q, -5.36.
On the same count and under the same terms, for chain 1 Y5P the value was -6.73; for chain 1 Y5K, -5.6; for chain 1 Y5G, -7.11.
Consider chain 1 Y5R, for which the enrichment is -7.05.
Still for that read-out and setting: for chain 1 C13K the value was -9.12; for chain 1 C13R, -10.5.
On the same count and under the same terms, with chain 1 C13Q the figure was -9.37; with chain 1 Y8N, -8.13.
Same read-out and setting: for chain 1 Y8T the value was -8.48.
Turning to chain 1 Y8H, the enrichment is -7.57.
On the same count and under the same terms, for chain 1 Y8K the value was -6.07; for chain 1 Y8E, -6.18.
chain 1 Y8P: the enrichment was -7.86.
Still for that read-out and setting: with chain 1 Y8I the figure was -9.38; with chain 1 Y8Q, -6.36; with chain 1 Y8M, -8.49.
On the same count and under the same terms, for chain 1 Y8G the value was -8.71; for chain 1 Y8R, -8.18.
The same measure, in the same setting: with chain 1 E1C the figure was -9.75; with chain 1 D3R, -7.45.
Consider chain 1 D3C, for which the enrichment is -9.89.
On the same count and under the same terms, with chain 1 D3Q the figure was -4.99.
On the same count and under the same terms, with chain 1 A7C the figure was -9.84; with chain 1 D4C, -9.24; with chain 1 D4T, -7.88.
On to chain 1 D4H, for which the enrichment is -7.77.
The same measure, in the same setting: with chain 1 D4G the figure was -6.22; with chain 1 D4R, -7.09.
The same measure, in the same setting: for chain 1 D4K the value was -6.88; for chain 1 P10M, -8.5; for chain 1 P10Q, -6.39.
On to chain 1 P10S, for which the enrichment is -9.19.
On the same count and under the same terms, with chain 1 P10H the figure was -7.95; with chain 1 P10C, -9.72.
On the same count and under the same terms, for chain 1 P10T the value was -7.86; for chain 1 P10R, -9.08; for chain 1 P10I, -8.44.
Same read-out and setting: with chain 1 P10V the figure was -10.4.
For chain 1 P10A, the enrichment was -8.71.
Turning to chain 1 P10K, the enrichment is -6.96.
For chain 1 P10N, the enrichment was -8.02.

The variants in the next test derive from B2. Particulars: with CXCL13 (biotinylated, synthetic); scale: log2.
In the case of chain 1 Y14Q, the enrichment was -6.82.
Same read-out and setting: with chain 1 Y14P the figure was -7.63; with chain 1 Y14R, -8.87; with chain 1 Y14S, -8.45.
